Test results reported in PMC5692578 (Proceedings of the National Academy of Sciences of the …, 2017).

T1: Mcm4 (S. cerevisiae, UniProt P30665 1-933)
T1 sequence: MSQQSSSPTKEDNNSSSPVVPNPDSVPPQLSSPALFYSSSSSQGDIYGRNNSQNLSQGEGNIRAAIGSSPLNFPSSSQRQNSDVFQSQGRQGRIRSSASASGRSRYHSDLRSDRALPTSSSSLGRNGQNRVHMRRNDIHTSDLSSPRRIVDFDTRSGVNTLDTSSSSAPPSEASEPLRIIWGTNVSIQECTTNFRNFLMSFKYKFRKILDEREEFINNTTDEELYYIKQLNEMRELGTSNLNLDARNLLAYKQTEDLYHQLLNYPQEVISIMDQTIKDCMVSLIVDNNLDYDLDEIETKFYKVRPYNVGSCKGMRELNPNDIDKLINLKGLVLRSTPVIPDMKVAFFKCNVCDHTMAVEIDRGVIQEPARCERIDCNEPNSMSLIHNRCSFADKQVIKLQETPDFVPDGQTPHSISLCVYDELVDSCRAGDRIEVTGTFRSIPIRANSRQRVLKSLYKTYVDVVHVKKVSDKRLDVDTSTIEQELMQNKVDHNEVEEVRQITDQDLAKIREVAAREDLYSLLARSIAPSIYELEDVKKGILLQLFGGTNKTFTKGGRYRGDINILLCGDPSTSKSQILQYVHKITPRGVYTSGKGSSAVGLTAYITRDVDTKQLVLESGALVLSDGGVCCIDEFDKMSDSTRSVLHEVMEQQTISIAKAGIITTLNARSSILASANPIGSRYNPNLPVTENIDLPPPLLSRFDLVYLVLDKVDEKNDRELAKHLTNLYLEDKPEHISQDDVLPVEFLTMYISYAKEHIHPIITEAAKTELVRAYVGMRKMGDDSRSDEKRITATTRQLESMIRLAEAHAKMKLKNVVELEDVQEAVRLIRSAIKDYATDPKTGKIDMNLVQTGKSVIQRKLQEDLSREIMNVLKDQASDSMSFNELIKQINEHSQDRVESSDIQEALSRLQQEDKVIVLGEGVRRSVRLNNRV

B1: Mcm7 (natural protein)
chain: MSAALPSIQLPVDYNNLFNEITDFLVTFKQDTLSSDATRNENEDENLDAENIEQHLLEKGPKYMAMLQKVANRELNSVIIDLDDILQYQNEKFLQGTQADDLVSAIQQNANHFTELFCRAIDNNMPLPTKEIDYKDDVLDVILNQRRLRNERMLSDRTNEIRSENLMDTTMDPPSSMNDALREVVEDETELFPPNLTRRYFLYFKPLSQNCARRYRKKAISSKPLSVRQIKGDFLGQLITVRGIITRVSDVKPAVEVIAYTCDQCGYEVFQEVNSRTFTPLSECTSEECSQNQTKGQLFMSTRASKFSAFQECKIQELSQQVPVGHIPRSLNIHVNGTLVRSLSPGDIVDVTGIFLPAPYTGFKALKAGLLTETYLEAQFVRQHKKKFASFSLTSDVEERVMELITSGDVYNRLAKSIAPEIYGNLDVKKALLLLLVGGVDKRVGDGMKIRGDINVCLMGDPGVAKSQLLKAICKISPRGVYTTGKGSSGVGLTAAVMKDPVTDEMILEGGALVLADNGICCIDEFDKMDESDRTAIHEVMEQQTISISKAGINTTLNARTSILAAANPLYGRYNPRLSPLDNINLPAALLSRFDILFLMLDIPSRDDDEKLAEHVTYVHMHNKQPDLDFTPVEPSKMREYIAYAKTKRPVMSEAVNDYVVQAYIRLRQDSKREMDSKFSFGQATPRTLLGIIRLSQALAKLRLADMVDIDDVEEALRLVRVSKESLYQETNKSKEDESPTTKIFTIIKKMLQETGKNTLSYENIVKTVRLRGFTMLQLSNCIQEYSYLNVWHLINEGNTLKFVDDGTMDTDQEDSLVSTPKLAPQTTASANVSAQDSDIDLQDA

Key:
Experiment in all cases: cryo-EM structure
Mcm3 = Mcm3 (S. cerevisiae, UniProt P24279 1-971)
Sequence of Mcm3 (P24279 whole entry): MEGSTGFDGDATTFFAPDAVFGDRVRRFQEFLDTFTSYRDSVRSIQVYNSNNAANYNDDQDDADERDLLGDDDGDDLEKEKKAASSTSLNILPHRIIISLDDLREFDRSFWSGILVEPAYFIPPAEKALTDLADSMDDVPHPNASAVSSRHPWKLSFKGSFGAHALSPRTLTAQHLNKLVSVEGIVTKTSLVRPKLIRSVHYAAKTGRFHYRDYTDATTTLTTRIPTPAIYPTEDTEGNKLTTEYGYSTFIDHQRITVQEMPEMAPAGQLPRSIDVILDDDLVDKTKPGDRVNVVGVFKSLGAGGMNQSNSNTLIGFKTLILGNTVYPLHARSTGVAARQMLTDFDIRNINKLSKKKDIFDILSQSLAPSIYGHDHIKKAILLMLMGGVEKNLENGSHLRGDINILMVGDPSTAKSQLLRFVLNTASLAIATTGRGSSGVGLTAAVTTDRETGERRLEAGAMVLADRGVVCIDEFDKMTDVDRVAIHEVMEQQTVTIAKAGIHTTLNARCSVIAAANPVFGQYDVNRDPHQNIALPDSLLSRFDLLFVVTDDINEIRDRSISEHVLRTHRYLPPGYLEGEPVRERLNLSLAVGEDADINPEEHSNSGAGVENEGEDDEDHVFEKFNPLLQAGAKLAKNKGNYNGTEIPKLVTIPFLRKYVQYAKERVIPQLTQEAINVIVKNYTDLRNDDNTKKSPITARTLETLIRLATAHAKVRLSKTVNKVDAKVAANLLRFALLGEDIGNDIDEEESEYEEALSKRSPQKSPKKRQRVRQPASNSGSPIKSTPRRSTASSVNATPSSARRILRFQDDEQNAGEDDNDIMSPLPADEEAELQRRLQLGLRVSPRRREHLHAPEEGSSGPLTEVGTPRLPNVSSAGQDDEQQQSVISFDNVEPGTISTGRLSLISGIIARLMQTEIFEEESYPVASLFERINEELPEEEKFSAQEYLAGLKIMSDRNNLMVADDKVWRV

Mcm4 = target: T1, Mcm4
Mcm7 = target: B1

Row | binding result (Mcm3) | binding result (Mcm4) | binding result (Mcm7) | Binder
1 | binds | binds | – | B1
2 | – | – | binds | Mcm5 (natural protein) MSFDRPEIYSAPVLQGESPNDDDNTEIIKSFKNFILEFRLDSQFIYRDQLRNNILVKNYSLTVNMEHLIGYNEDIYKKLSDEPSDIIPLFETAITQVAKRISILSRAQSANNNDKDPENTSMDTDSLLLNSLPTFQLILNSNANQIPLRDLDSEHVSKIVRLSGIIISTSVLSSRATYLSIMCRNCRHTTSITINNFNSITGNTVSLPRSCLSTIESESSMANESNIGDESTKKNCGPDPYIIIHESSKFIDQQFLKLQEIPELVPVGEMPRNLTMTCDRYLTNKVIPGTRVTIVGIYSIYNSKNGAGSGRSGGGNGGSGVAIRTPYIKILGIQSDVETSSIWNSVTMFTEEEEEEFLQLSRNPKLYEILTNSIAPSIFGNEDIKKAIVCLLMGGSKKILPDGMRLRGDINVLLLGDPGTAKSQLLKFVEKVSPIAVYTSGKGSSAAGLTASVQRDPMTREFYLEGGAMVLADGGVVCIDEFDKMRDEDRVAIHEAMEQQTISIAKAGITTVLNSRTSVLAAANPIYGRYDDLKSPGDNIDFQTTILSRFDMIFIVKDDHNEERDISIANHVINIHTGNANAMQNQQEENGSEISIEKMKRYITYCRLKCAPRLSPQAAEKLSSNFVTIRKQLLINELESTERSSIPITIRQLEAIIRITESLAKLELSPIAQERHVDEAIRLFQASTMDAASQDPIGGLNQASGTSLSEIRRFEQELKRRLPIGWSTSYQTLRREFVDTHRFSQLALDKALYALEKHETIQLRHQGQNIYRSGV
